Measured values from the supplement of paper PMC9112550, “Optimization of the antimicrobial peptide Bac7 by deep mutational scanning” (BMC Biology, 2022).

System: Escherichia coli TOP10
Assay: shrunken log2 fold change of peptide-encoding DNA abundance (4.5 h post-induction vs induction); higher = less antimicrobial activity (less host growth inhibition)
Conditions: time post-induction: 4.5 h; library: site-saturation at positions 5, 18, 19, 20
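Note: peptides expressed intracellularly from a pBAD plasmid library in pooled LB shake-flask culture, induced with 0.3% L-arabinose, DNA abundance read by NGS, three biological replicates, DESeq2 with apeglm shrinkage.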

Q: With RRIRFRPPRLPRPRPRPKLTPRP as the sequence, how does the “shrunken log2 fold change” value read?
A: Its value is -0.069.

Q: RRIRFRPPRLPRPRPRPREAPRP was tested. Which “shrunken log2 fold change” value did it give?
A: The value was 0.115.

Q: How did the “shrunken log2 fold change” value turn out when RRIRQRPPRLPRPRPRPPELPRP was run?
A: Its value is 0.109.

Q: How did the “shrunken log2 fold change” value turn out when RRIRMRPPRLPRPRPRPIDLPRP was run?
A: The value was -0.00804.

Q: How did the “shrunken log2 fold change” value turn out when RRIRRRPPRLPRPRPRPERWPRP was run?
A: The value was 0.613.

Q: With RRIRWRPPRLPRPRPRPEQGPRP as the sequence, how does the “shrunken log2 fold change” value read?
A: Its value is -0.00277.

Q: With RRIRPRPPRLPRPRPRPMMWPRP as the sequence, how does the “shrunken log2 fold change” value read?
A: Its value is 0.0433.

Q: RRIRQRPPRLPRPRPRPALKPRP was tested. Which “shrunken log2 fold change” value did it give?
A: The value was 0.0439.

Q: Which “shrunken log2 fold change” value does the source give for RRIRCRPPRLPRPRPRPGHVPRP here?
A: Its value is 0.0304.

Q: For RRIRTRPPRLPRPRPRPECKPRP, which “shrunken log2 fold change” value is on record?
A: Its value is 0.165.

Q: How did the “shrunken log2 fold change” value turn out when RRIRMRPPRLPRPRPRPSEAPRP was run?
A: The value was 1.95.

Q: RRIRKRPPRLPRPRPRPHPFPRP was tested. Which “shrunken log2 fold change” value did it give?
A: The value was 0.188.

Q: RRIRWRPPRLPRPRPRPCQTPRP was tested. Which “shrunken log2 fold change” value did it give?
A: Its value is -0.0122.

Q: RRIRKRPPRLPRPRPRPVNIPRP was tested. Which “shrunken log2 fold change” value did it give?
A: Its value is -0.0139.

Q: For RRIRARPPRLPRPRPRPKCRPRP, which “shrunken log2 fold change” value is on record?
A: Its value is 0.237.

Q: With RRIRMRPPRLPRPRPRPNWVPRP as the sequence, how does the “shrunken log2 fold change” value read?
A: The value was -0.0816.

Q: How did the “shrunken log2 fold change” value turn out when RRIRKRPPRLPRPRPRPFNNPRP was run?
A: Its value is -0.0235.

Q: With RRIRSRPPRLPRPRPRPQMCPRP as the sequence, how does the “shrunken log2 fold change” value read?
A: Its value is -0.724.

Q: With RRIRYRPPRLPRPRPRPWEPPRP as the sequence, how does the “shrunken log2 fold change” value read?
A: The value was -0.0182.

Q: Which “shrunken log2 fold change” value does the source give for RRIRRRPPRLPRPRPRPTPCPRP here?
A: Its value is 0.774.

Q: RRIRARPPRLPRPRPRPSAVPRP was tested. Which “shrunken log2 fold change” value did it give?
A: Its value is 0.282.

Q: RRIRRRPPRLPRPRPRPTGCPRP was tested. Which “shrunken log2 fold change” value did it give?
A: Its value is 0.0105.

Q: RRIRMRPPRLPRPRPRPNELPRP was tested. Which “shrunken log2 fold change” value did it give?
A: Its value is 0.0804.

Q: With RRIRWRPPRLPRPRPRPCGGPRP as the sequence, how does the “shrunken log2 fold change” value read?
A: Its value is 0.123.

Q: RRIRWRPPRLPRPRPRPIYKPRP was tested. Which “shrunken log2 fold change” value did it give?
A: The value was -0.596.

Q: For RRIRHRPPRLPRPRPRPPICPRP, which “shrunken log2 fold change” value is on record?
A: The value was -0.0463.

Q: For RRIRCRPPRLPRPRPRPSDRPRP, which “shrunken log2 fold change” value is on record?
A: Its value is -0.473.

Q: How did the “shrunken log2 fold change” value turn out when RRIRWRPPRLPRPRPRPLWLPRP was run?
A: Its value is 0.202.

Q: With RRIRQRPPRLPRPRPRPSHSPRP as the sequence, how does the “shrunken log2 fold change” value read?
A: Its value is -0.102.

Q: With RRIRYRPPRLPRPRPRPGMQPRP as the sequence, how does the “shrunken log2 fold change” value read?
A: The value was -0.224.

Q: Which “shrunken log2 fold change” value does the source give for RRIRDRPPRLPRPRPRPIPKPRP here?
A: Its value is -0.0116.

Q: Which “shrunken log2 fold change” value does the source give for RRIRNRPPRLPRPRPRPGTRPRP here?
A: Its value is 0.00131.

Q: How did the “shrunken log2 fold change” value turn out when RRIRSRPPRLPRPRPRPKALPRP was run?
A: Its value is 0.175.

Q: With RRIRGRPPRLPRPRPRPPNEPRP as the sequence, how does the “shrunken log2 fold change” value read?
A: The value was 0.947.

Q: How did the “shrunken log2 fold change” value turn out when RRIRDRPPRLPRPRPRPDMAPRP was run?
A: The value was 0.219.

Q: How did the “shrunken log2 fold change” value turn out when RRIRNRPPRLPRPRPRPMYSPRP was run?
A: Its value is -0.479.

Q: How did the “shrunken log2 fold change” value turn out when RRIRKRPPRLPRPRPRPMEPPRP was run?
A: Its value is 0.0318.

Q: RRIRQRPPRLPRPRPRPVMAPRP was tested. Which “shrunken log2 fold change” value did it give?
A: Its value is -0.38.

Q: How did the “shrunken log2 fold change” value turn out when RRIRQRPPRLPRPRPRPGCKPRP was run?
A: The value was -0.0467.

Q: With RRIRTRPPRLPRPRPRPHVGPRP as the sequence, how does the “shrunken log2 fold change” value read?
A: Its value is 0.0439.

Q: For RRIRERPPRLPRPRPRPCCCPRP, which “shrunken log2 fold change” value is on record?
A: The value was 0.15.

Q: Which “shrunken log2 fold change” value does the source give for RRIRMRPPRLPRPRPRPGDRPRP here?
A: Its value is 0.786.

Q: RRIRWRPPRLPRPRPRPVYMPRP was tested. Which “shrunken log2 fold change” value did it give?
A: The value was -0.476.

Q: RRIRPRPPRLPRPRPRPIGMPRP was tested. Which “shrunken log2 fold change” value did it give?
A: Its value is -0.232.

Q: Which “shrunken log2 fold change” value does the source give for RRIRMRPPRLPRPRPRPIEFPRP here?
A: The value was 0.103.

Q: Which “shrunken log2 fold change” value does the source give for RRIRFRPPRLPRPRPRPMWDPRP here?
A: The value was -0.469.

Q: Which “shrunken log2 fold change” value does the source give for RRIRHRPPRLPRPRPRPRWEPRP here?
A: Its value is 0.136.

Q: With RRIRQRPPRLPRPRPRPCCHPRP as the sequence, how does the “shrunken log2 fold change” value read?
A: The value was -0.197.

Q: Which “shrunken log2 fold change” value does the source give for RRIRNRPPRLPRPRPRPKLSPRP here?
A: Its value is 0.0328.

Q: For RRIRCRPPRLPRPRPRPHPWPRP, which “shrunken log2 fold change” value is on record?
A: The value was -0.158.

Q: With RRIRMRPPRLPRPRPRPVCHPRP as the sequence, how does the “shrunken log2 fold change” value read?
A: Its value is 0.224.

Q: With RRIRGRPPRLPRPRPRPSHVPRP as the sequence, how does the “shrunken log2 fold change” value read?
A: The value was -0.141.

Q: How did the “shrunken log2 fold change” value turn out when RRIRMRPPRLPRPRPRPTTYPRP was run?
A: Its value is 0.0427.

Q: Which “shrunken log2 fold change” value does the source give for RRIRGRPPRLPRPRPRPHRSPRP here?
A: Its value is 0.188.

Q: With RRIRARPPRLPRPRPRPRMWPRP as the sequence, how does the “shrunken log2 fold change” value read?
A: The value was 0.164.

Q: RRIRYRPPRLPRPRPRPWGGPRP was tested. Which “shrunken log2 fold change” value did it give?
A: The value was 0.011.

Q: For RRIRRRPPRLPRPRPRPGETPRP, which “shrunken log2 fold change” value is on record?
A: Its value is 0.309.

Q: With RRIRQRPPRLPRPRPRPNSEPRP as the sequence, how does the “shrunken log2 fold change” value read?
A: Its value is -0.206.

Q: With RRIRGRPPRLPRPRPRPTQIPRP as the sequence, how does the “shrunken log2 fold change” value read?
A: The value was 1.38.

Q: RRIRSRPPRLPRPRPRPEEVPRP was tested. Which “shrunken log2 fold change” value did it give?
A: The value was 0.0829.

Q: With RRIRRRPPRLPRPRPRPKYFPRP as the sequence, how does the “shrunken log2 fold change” value read?
A: Its value is 0.162.

Q: RRIRYRPPRLPRPRPRPLVFPRP was tested. Which “shrunken log2 fold change” value did it give?
A: The value was -0.439.

Q: RRIRNRPPRLPRPRPRPQGSPRP was tested. Which “shrunken log2 fold change” value did it give?
A: The value was -0.0968.

Q: For RRIRCRPPRLPRPRPRPYCLPRP, which “shrunken log2 fold change” value is on record?
A: Its value is -0.442.

Q: With RRIRVRPPRLPRPRPRPITMPRP as the sequence, how does the “shrunken log2 fold change” value read?
A: Its value is -0.432.

Q: RRIRERPPRLPRPRPRPACGPRP was tested. Which “shrunken log2 fold change” value did it give?
A: Its value is 0.14.

Q: Which “shrunken log2 fold change” value does the source give for RRIRVRPPRLPRPRPRPRRYPRP here?
A: The value was -0.0486.

Q: Which “shrunken log2 fold change” value does the source give for RRIRKRPPRLPRPRPRPLVWPRP here?
A: Its value is 0.298.

Q: With RRIRPRPPRLPRPRPRPMRFPRP as the sequence, how does the “shrunken log2 fold change” value read?
A: The value was 0.0813.

Q: How did the “shrunken log2 fold change” value turn out when RRIRERPPRLPRPRPRPQKYPRP was run?
A: The value was -1.15.

Q: With RRIRQRPPRLPRPRPRPNPFPRP as the sequence, how does the “shrunken log2 fold change” value read?
A: The value was -0.26.

Q: How did the “shrunken log2 fold change” value turn out when RRIRIRPPRLPRPRPRPMYPPRP was run?
A: Its value is -0.0642.

Q: How did the “shrunken log2 fold change” value turn out when RRIRKRPPRLPRPRPRPWLGPRP was run?
A: Its value is 1.57.

Q: RRIRMRPPRLPRPRPRPRGQPRP was tested. Which “shrunken log2 fold change” value did it give?
A: The value was 1.25.

Q: With RRIRCRPPRLPRPRPRPTLYPRP as the sequence, how does the “shrunken log2 fold change” value read?
A: The value was -0.396.
